From PMC7864068, “α2-Macroglobulin-like protein 1 can conjugate and inhibit proteases through their hydroxyl groups, because of an enhanced reactivity of its thiol ester” (The Journal of Biological Chemistry, 2021)

T1: Thermolysin from Geobacillus stearothermophilus, unmodified (Geobacillus stearothermophilus, UniProt P00800 233-548)
T1 sequence (looked up): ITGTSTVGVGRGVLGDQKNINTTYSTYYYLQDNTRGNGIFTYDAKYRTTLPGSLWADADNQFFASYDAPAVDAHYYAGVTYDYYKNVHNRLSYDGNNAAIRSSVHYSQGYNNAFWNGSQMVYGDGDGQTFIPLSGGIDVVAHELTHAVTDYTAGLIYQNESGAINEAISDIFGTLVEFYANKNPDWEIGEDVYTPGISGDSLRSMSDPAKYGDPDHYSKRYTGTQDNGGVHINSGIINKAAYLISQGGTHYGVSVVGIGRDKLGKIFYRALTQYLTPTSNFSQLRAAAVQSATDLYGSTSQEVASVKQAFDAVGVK


Experiments:
[1] = target: T1, Thermolysin from Geobacillus …; assay: cell-based or functional assay
[2] = target: Acetylated thermolysin (Geobacillus stearothermophilus) (UniProt P00800)

Row | Binder | inhibition of thermolysin's cleavage of resorufin-labeled casein, pH 7.8; molar surplus of A2ML1 needed for full inhibition [1] | inhibition of thermolysin's cleavage of resorufin-labeled casein, reaction at pH 5; surplus of A2ML1 needed for full inhibition [1] | inhibition of acetylated thermolysin's cleavage of resorufin-labeled casein, pH 7.8; molar surplus of A2ML1 needed for full inhibition (fold molar surplus of A2ML1) [2]
1 | Human α2-macroglobulin-like protein 1 (A2ML1), recombinant wild type (natural protein, UniProt A8K2U0-1 18-1454, looked up, internal thiol ester in which Gln-973 participates) EELPNYLVTLPARLNFPSVQKVCLDLSPGYSDVKFTVTLETKDKTQKLLEYSGLKKRHLHCISFLVPPPAGGTEEVATIRVSGVGNNISFEEKKKVLIQRQGNGTFVQTDKPLYTPGQQVYFRIVTMDSNFVPVNDKYSMVELQDPNSNRIAQWLEVVPEQGIVDLSFQLAPEAMLGTYTVAVAEGKTFGTFSVEEYVLPKFKVEVVEPKELSTVQESFLVKICCRYTYGKPMLGAVQVSVCQKANTYWYREVEREQLPDKCRNLSGQTDKTGCFSAPVDMATFDLIGYAYSHQINIVATVVEEGTGVEANATQNIYISPQMGSMTFEDTSNFYHPNFPFSGKIRVRGHDDSFLKNHLVFLVIYGTNGTFNQTLVTDNNGLAPFTLETSGWNGTDVSLEGKFQMEDLVYNPEQVPRYYQNAYLHLRPFYSTTRSFLGIHRLNGPLKCGQPQEVLVDYYIDPADASPDQEISFSYYLIGKGSLVMEGQKHLNSKKKGLKASFSLSLTFTSRLAPDPSLVIYAIFPSGGVVADKIQFSVEMCFDNQVSLGFSPSQQLPGAEVELQLQAAPGSLCALRAVDESVLLLRPDRELSNRSVYGMFPFWYGHYPYQVAEYDQCPVSGPWDFPQPLIDPMPQGHSSQRSIIWRPSFSEGTDLFSFFRDVGLKILSNAKIKKPVDCSHRSPEYSTAMGAGGGHPEAFESSTPLHQAEDSQVRQYFPETWLWDLFPIGNSGKEAVHVTVPDAITEWKAMSFCTSQSRGFGLSPTVGLTAFKPFFVDLTLPYSVVRGESFRLTATIFNYLKDCIRVQTDLAKSHEYQLESWADSQTSSCLCADDAKTHHWNITAVKLGHINFTISTKILDSNEPCGGQKGFVPQKGRSDTLIKPVLVKPEGVLVEKTHSSLLCPKGKVASESVSLELPVDIVPDSTKAYVTVLGDIMGTALQNLDGLVQMPSGCGEQNMVLFAPIIYVLQYLEKAGLLTEEIRSRAVGFLEIGYQKELMYKHSNGSYSAFGERDGNGNTWLTAFVTKCFGQAQKFIFIDPKNIQDALKWMAGNQLPSGCYANVGNLLHTAMKGGVDDEVSLTAYVTAALLEMGKDVDDPMVSQGLRCLKNSATSTTNLYTQALLAYIFSLAGEMDIRNILLKQLDQQAIISGESIYWSQKPTPSSNASPWSEPAAVDVELTAYALLAQLTKPSLTQKEIAKATSIVAWLAKQHNAYGGFSSTQDTVVALQALAKYATTAYMPSEEINLVVKSTENFQRTFNIQSVNRLVFQQDTLPNVPGMYTLEASGQGCVYVQTVLRYNILPPTNMKTFSLSVEIGKARCEQPTSPRSLTLTIHTSYVGSRSSSNMAIVEVKMLSGFSPMEGTNQLLLQQPLVKKVEFGTDTLNIYLDELIKNTQTYTFTISQSVLVTNLKPATIKVYDYYLPDEQATIQYSDPCE | ~2 fold molar surplus of A2ML1 | ~4 fold surplus of A2ML1 | 6
2 | A2ML1 H1084N mutant (natural protein, human, UniProt A8K2U0-1 18-1454, looked up, internal thiol ester in which Gln-973 participates) EELPNYLVTLPARLNFPSVQKVCLDLSPGYSDVKFTVTLETKDKTQKLLEYSGLKKRHLHCISFLVPPPAGGTEEVATIRVSGVGNNISFEEKKKVLIQRQGNGTFVQTDKPLYTPGQQVYFRIVTMDSNFVPVNDKYSMVELQDPNSNRIAQWLEVVPEQGIVDLSFQLAPEAMLGTYTVAVAEGKTFGTFSVEEYVLPKFKVEVVEPKELSTVQESFLVKICCRYTYGKPMLGAVQVSVCQKANTYWYREVEREQLPDKCRNLSGQTDKTGCFSAPVDMATFDLIGYAYSHQINIVATVVEEGTGVEANATQNIYISPQMGSMTFEDTSNFYHPNFPFSGKIRVRGHDDSFLKNHLVFLVIYGTNGTFNQTLVTDNNGLAPFTLETSGWNGTDVSLEGKFQMEDLVYNPEQVPRYYQNAYLHLRPFYSTTRSFLGIHRLNGPLKCGQPQEVLVDYYIDPADASPDQEISFSYYLIGKGSLVMEGQKHLNSKKKGLKASFSLSLTFTSRLAPDPSLVIYAIFPSGGVVADKIQFSVEMCFDNQVSLGFSPSQQLPGAEVELQLQAAPGSLCALRAVDESVLLLRPDRELSNRSVYGMFPFWYGHYPYQVAEYDQCPVSGPWDFPQPLIDPMPQGHSSQRSIIWRPSFSEGTDLFSFFRDVGLKILSNAKIKKPVDCSHRSPEYSTAMGAGGGHPEAFESSTPLHQAEDSQVRQYFPETWLWDLFPIGNSGKEAVHVTVPDAITEWKAMSFCTSQSRGFGLSPTVGLTAFKPFFVDLTLPYSVVRGESFRLTATIFNYLKDCIRVQTDLAKSHEYQLESWADSQTSSCLCADDAKTHHWNITAVKLGHINFTISTKILDSNEPCGGQKGFVPQKGRSDTLIKPVLVKPEGVLVEKTHSSLLCPKGKVASESVSLELPVDIVPDSTKAYVTVLGDIMGTALQNLDGLVQMPSGCGEQNMVLFAPIIYVLQYLEKAGLLTEEIRSRAVGFLEIGYQKELMYKHSNGSYSAFGERDGNGNTWLTAFVTKCFGQAQKFIFIDPKNIQDALKWMAGNQLPSGCYANVGNLLNTAMKGGVDDEVSLTAYVTAALLEMGKDVDDPMVSQGLRCLKNSATSTTNLYTQALLAYIFSLAGEMDIRNILLKQLDQQAIISGESIYWSQKPTPSSNASPWSEPAAVDVELTAYALLAQLTKPSLTQKEIAKATSIVAWLAKQHNAYGGFSSTQDTVVALQALAKYATTAYMPSEEINLVVKSTENFQRTFNIQSVNRLVFQQDTLPNVPGMYTLEASGQGCVYVQTVLRYNILPPTNMKTFSLSVEIGKARCEQPTSPRSLTLTIHTSYVGSRSSSNMAIVEVKMLSGFSPMEGTNQLLLQQPLVKKVEFGTDTLNIYLDELIKNTQTYTFTISQSVLVTNLKPATIKVYDYYLPDEQATIQYSDPCE | ~2 fold molar surplus of A2ML1 | ~4 fold surplus of A2ML1 | 
